Experiments:
endogenous mouse MLC1 = endogenous mouse MLC1 (Mus musculus (Mouse)., UniProt Q8VHK5); experiment: co-IP
Flag::hMLC1::GFP = Flag::hMLC1::GFP (Homo sapiens (Human)., UniProt Q15049); experiment: immunostaining of cells or tissue
endogenous human MLC1 = endogenous human MLC1 (Homo sapiens (Human)., UniProt Q15049); experiment: immunostaining of cells or tissue
[1] = target: human MLC1 fused to C-terminal GFP (Homo sapiens (Human)., UniProt Q15049); experiment: western blot
[2] = target: chicken MLC1 fused to C-terminal GFP (Gallus gallus, UniProt A0A1D5PIT5); experiment: western blot
[3] = target: mouse MLC1 fused to C-terminal GFP (Mus musculus (Mouse)., UniProt Q8VHK5); experiment: western blot
Flag-tagged human MLC1 = Flag-tagged human MLC1 (human, UniProt Q15049); experiment: western blot
Flag-tagged mouse MLC1 = Flag-tagged mouse MLC1 (mouse, UniProt Q8VHK5); experiment: western blot
[4] = target: T1, MLC1-derived peptide (antigen peptide of the cryo-EM complex) (Mus musculus); experiment: cryo-EM structure
T1 chain: YDRMPTLERGRQDA

Measured: binding result

Flag-tagged mouse MLC1, sequence (Q8VHK5 whole entry): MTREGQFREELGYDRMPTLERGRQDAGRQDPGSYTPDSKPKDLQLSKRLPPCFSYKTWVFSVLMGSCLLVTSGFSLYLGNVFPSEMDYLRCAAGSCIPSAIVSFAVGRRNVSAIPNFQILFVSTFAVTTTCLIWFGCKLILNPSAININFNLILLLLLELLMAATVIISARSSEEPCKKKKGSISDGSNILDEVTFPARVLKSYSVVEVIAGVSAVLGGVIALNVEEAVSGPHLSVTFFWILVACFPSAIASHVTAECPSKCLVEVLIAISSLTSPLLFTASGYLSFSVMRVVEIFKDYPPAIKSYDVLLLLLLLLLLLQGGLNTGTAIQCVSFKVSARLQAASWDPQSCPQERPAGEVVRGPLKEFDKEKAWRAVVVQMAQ
mouse MLC1 fused to C-terminal GFP, sequence (Q8VHK5 whole entry, the tested form may be a part): as the sequence (Q8VHK5 whole entry) above
endogenous mouse MLC1, sequence (Q8VHK5 whole entry): as above
Flag-tagged human MLC1, sequence (Q15049 whole entry): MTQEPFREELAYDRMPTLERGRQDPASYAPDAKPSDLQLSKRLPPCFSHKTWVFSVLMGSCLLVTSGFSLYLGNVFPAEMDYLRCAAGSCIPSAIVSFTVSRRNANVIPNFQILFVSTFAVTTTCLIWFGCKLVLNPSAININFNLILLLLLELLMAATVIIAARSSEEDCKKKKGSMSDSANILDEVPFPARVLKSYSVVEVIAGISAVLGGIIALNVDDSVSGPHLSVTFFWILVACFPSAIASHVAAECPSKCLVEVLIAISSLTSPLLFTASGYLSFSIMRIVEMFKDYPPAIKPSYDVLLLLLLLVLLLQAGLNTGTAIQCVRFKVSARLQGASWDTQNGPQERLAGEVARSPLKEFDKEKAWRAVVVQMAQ
human MLC1 fused to C-terminal GFP, sequence (Q15049 whole entry, the tested form may be a part): as the sequence (Q15049 whole entry) above
endogenous human MLC1, sequence (Q15049 whole entry, the tested form may be a part): as the sequence (Q15049 whole entry) above
Flag::hMLC1::GFP, sequence (Q15049 whole entry): as above

B1: monoclonal antibody 37E5 (anti-MLC1), whole IgG (antibody, V domains shown)
VH: QIQLVQSGPDLKKPGETVKISCKASGYTFTNYGMSWVKQAPGKVLKWMGWINTYTGEPTYADDFKGRFAFSLETSANTAYLQINNLKNEDTATYFCAREGATSGFPYWGQGTLVTVSA
VL: DIVMSQSPSSLAVSAGEKVTMSCRSSQSLLNSRTRKNYLAWYQQKPGQSPKLLIYWASTRESGVPDRFTGSGSGTDFTLTISSVQAEDLAVYYCKQSYDLPYTFGGGTKLEIK
binds: endogenous mouse MLC1 | Flag::hMLC1::GFP | endogenous human MLC1 | [1] | [2] | [3] | Flag-tagged human MLC1 | Flag-tagged mouse MLC1

B2: 37E5 Fab fragment (Fab, V domains shown)
VH: B1 VH
VL: B1 VL
binds: [4]

— doi:10.1101/2025.10.08.681078 (bioRxiv, 2025)
